Reference: patent US20130171069A1
Ends that are not written are not given here.

B1: C-terminal biotinylated AAT02 … (peptide)
peptide: HLNWWHSWYPAR-biotin
B2: C-terminal biotinylated AAT03 … (peptide)
peptide: HLNWLSWFPSRH-biotin
B3: C-terminal biotinylated AAT01 … (peptide)
peptide: HFNWYNLWRVQY-biotin

Target: synthetic amylospheroid (synthetic ASPD) (UniProt P05067)
Test: SPR; biotinylated peptide on the chip, ASPD as ligand

Kd	kon	Binder
82.4 nM		B1
88.5 nM		B2
57.7 nM	7640 M⁻¹ s⁻¹	B3
